# Laboratory results taken from PMC5376981 (Scientific Reports, 2014).
# Tests used:
# [1] = target: 3D7-DBL5ε (Plasmodium falciparum 3D7, UniProt Q8I639, strain); experiment: ELISA
# [2] = target: 3D7-DBL6ε (Plasmodium falciparum 3D7, UniProt Q8I639, strain); experiment: ELISA
# [3] = target: FCR3-DBL6ε (Plasmodium falciparum FCR3, UniProt Q6UDW7, strain); experiment: ELISA
# [4] = target: FCR3-DBL3X-4ε (Plasmodium falciparum FCR3, UniProt Q6UDW7, strain); experiment: ELISA
# [5] = target: full-length VAR2CSA recombinant protein (3D7-DBL1X-6ε) (Plasmodium falciparum 3D7, UniProt Q8I639, strain); experiment: SPR
binder,measurement,setting,value
VHH861 (VHH) VHH: QVQLQESGGGLVQAGGSLRLSCAFSGSIFKMGWYRQAPGKERELVATITHIGVTDYAEFVKGRFTISRDNAKNTVYLLMNSLKPEDTAVYYCNVASRWPDYWGQGTQVTVSS,binding result,[1],no binding (tested: 0.3 µg/ml)
same,binding result,[2],no binding (tested: 0.3 µg/ml)
same,binding result,[3],no binding (tested: 0.3 µg/ml)
same,binding result,[4],binds
same,Kd,[5],35 nM
same,koff,[5],0.001 s⁻¹
same,kon,[5],29000 M⁻¹ s⁻¹
